For one assay, the target named is T1, mouse FcγRIV (mouse, UniProt A0A0B4J1G0 21-203).
T1 construct: also called mFcγRIV; not shown: purification tag of the soluble receptor (probably a His tag)
T1 sequence: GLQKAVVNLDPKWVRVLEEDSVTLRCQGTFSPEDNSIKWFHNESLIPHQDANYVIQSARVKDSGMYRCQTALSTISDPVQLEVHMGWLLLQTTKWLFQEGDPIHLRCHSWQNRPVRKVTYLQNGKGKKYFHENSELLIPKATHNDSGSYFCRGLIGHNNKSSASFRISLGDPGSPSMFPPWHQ
The experiment in a line: SPR (Biacore).

The target of the next assay is T2, mouse FcγRI (mouse, UniProt P26151 25-297).
T2 construct: also called mFcγRI
T2 sequence (looked up): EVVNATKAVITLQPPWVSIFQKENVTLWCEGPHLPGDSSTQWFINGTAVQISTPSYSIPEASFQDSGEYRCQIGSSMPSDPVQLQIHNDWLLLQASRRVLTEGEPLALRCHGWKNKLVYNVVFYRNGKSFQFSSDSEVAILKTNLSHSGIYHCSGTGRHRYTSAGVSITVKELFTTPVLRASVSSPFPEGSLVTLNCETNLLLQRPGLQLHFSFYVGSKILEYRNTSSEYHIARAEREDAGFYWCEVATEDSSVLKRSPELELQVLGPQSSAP
The assay is described as follows: SPR (Biacore). A general note: SPR reads the build-up and loss of mass on a sensor chip optically.

The target of the next assay is T3, human FcRn (human, UniProt P55899 24-290; P61769 21-119, limits assumed).
T3 construct: also called hFcRn
The assay is described as follows: SPR (Biacore), pH 7.0. How it is done: The binding between the antibody and human FcRn under a neutral condition (pH 7.0) was analyzed with a BIACORE™ system.

T3 sequence (P55899 24-290 limits assumed, chain 1 of 2): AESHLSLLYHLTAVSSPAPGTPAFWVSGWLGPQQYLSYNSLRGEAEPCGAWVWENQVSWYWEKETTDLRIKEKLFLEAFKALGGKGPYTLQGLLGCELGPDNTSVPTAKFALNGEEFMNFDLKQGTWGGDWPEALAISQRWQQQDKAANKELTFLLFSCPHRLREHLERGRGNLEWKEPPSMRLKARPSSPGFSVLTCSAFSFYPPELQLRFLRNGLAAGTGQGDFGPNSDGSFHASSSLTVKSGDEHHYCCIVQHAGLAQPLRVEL
T3 sequence (P61769 21-119 limits assumed, chain 2 of 2): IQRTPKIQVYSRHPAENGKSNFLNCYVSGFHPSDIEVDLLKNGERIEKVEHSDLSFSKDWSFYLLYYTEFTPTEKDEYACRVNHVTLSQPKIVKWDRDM

B1: VH3/L (WT)-mIgG1 (antibody)
heavy: QVQLQESGPGLVKPSETLSLTCAVSGHSISHDHAWSWVRQPPGEGLEWIGFISYSGITNYNPSLQGRVTISRDNSKNTLYLQMNSLRAEDTAVYYCARSLARTTAMDYWGEGTLVTVSSAKTTPPSVYPLAPGSAAQTNSMVTLGCLVKGYFPEPVTVTWNSGSLSSGVHTFPAVLQSDLYTLSSSVTVPSSTWPSETVTCNVAHPASSTKVDKKIVPRDCGCKPCICTVPEVSSVFIFPPKPKDVLTITLTPKVTCVVVDISKDDPEVQFSWFVDDVEVHTAQTQPREEQFNSTFRSVSELPIMHQDWLNGKEFKCRVNSAAFPAPIEKTISKTKGRPKAPQVYTIPPPKEQMAKDKVSLTCMITDFFPEDITVEWQWNGQPAENYKNTQPIMDTDGSYFVYSKLNVQKSNWEAGNTFTCSVLHEGLHNHHTEKSLSHSPGK
light: not shown
notes: copies: 2 + 2
Consider B1, for which the binding result with mouse FcγRIV and with mouse FcγRI was “no binding” each time.

B2: F554 (antibody, human IgG1, kappa)
heavy: QVQLQESGPGLVKPSETLSLTCAVSGHSISHDHAWSWVRQPPGEGLEWIGFISYSGITNYNPSLQGRVTISRDNSKNTLYLQMNSLRAEDTAVYYCARSLARTTAMDYWGEGTLVTVSSASTKGPSVFPLAPSSKSTSGGTAALGCLVKDYFPEPVTVSWNSGALTSGVHTFPAVLQSSGLYSLSSVVTVPSSSLGTQTYICNVNHKPSNTKVDKKVEPKSCDKTHTCPPCPAPELLGGPKVFLFPPKPKDTLYITRTPEVTCVVVDVSHEDPEVKFNWYVDGVEVHNAKTKPREEQYNSTYRVVSVLTPLHQDWLNGKEYKCKVSNKALPAPIEKTISKAKGQPREPQVYTLPPSRDELTKNQVSLTCLVKGFYPSDIAVEWESNGQPENNYKTTPPVLDSDGSFFLYSKLTVDKSRWQQGNVFSCSVMHEALHYHYTQKSLSLSP
light: not shown
notes: copies: 2 + 2
As a reminder, the Kd is the concentration at which binding is half-saturated. Low values mean a tighter complex, high ones a looser complex. For B2, in the assay with human FcRn, the Kd came to 28 nM.

The values are drawn from patent publication US20240279325A1 (Chugai, published 2024).
